The values below come from the supplement of paper PMC5998384.

Data set [1] concerns HeLa Kyoto. Briefly: solubility in G1/S (NP-40 vs SDS abundance) (log2 ratio); higher = more soluble. As to conditions: cell cycle stage: G1/S.
Data set [2] has as its system HeLa Kyoto. Put plainly: melting temperature (median over replicates), in situ; higher = more thermally stable.
The test system of data set [3] is HeLa Kyoto. Briefly: solubility change mitosis vs G1/S (difference of NP-40 vs SDS log2 ratios) (log2 ratio difference); higher = more soluble in mitosis.
The subject of data set [4] is HeLa Kyoto. Put plainly: thermal stability score vs G1/S (z-score of summed log2 fold changes over temperatures); higher = more thermally stable than in G1/S.
[5] abbreviates: cell cycle stage: early G1 (4.5 h after nocodazole release).
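Throughout, for melting temperature (median over replicates), in situ: HeLa Kyoto cells synchronized by double thymidine or nocodazole block, proteins quantified by TMT10plex mass spectrometry, three independent biological replicates.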
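Throughout, for solubility change mitosis vs G1/S (difference of NP-40 vs SDS log2 ratios): synchronized HeLa Kyoto cells (double thymidine block for G1/S, nocodazole release for mitosis), protein amounts in NP-40 versus SDS lysates quantified by mass spectrometry, three biological replicates.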
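Throughout, for solubility in G1/S (NP-40 vs SDS abundance): HeLa Kyoto cells arrested at G1/S by double thymidine block, proteins quantified by TMT10plex mass spectrometry in mild NP-40 versus SDS extracts, three biological replicates.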
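Throughout, for thermal stability score vs G1/S (z-score of summed log2 fold changes over temperatures): synchronized HeLa Kyoto cells, proteins quantified by TMT10plex mass spectrometry, three biological replicates, mitosis taken 0.5 h after nocodazole release, G1/S directly after double thymidine block.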

With “MSSGIHVALVTGGNKGIGLAIVRDLCRLFSGDVVLTARDVTRGQAAVQQLQAEGLSPRFHQLDIDDLQSIRALRDFLRKEYGGLDVLVNNAGIAFKVADPTPFHIQAEVTMKTNFFGTRDVCTELLPLIKPQGRVVNVSSIMSVRALKSCSPELQQKFRSETITEEELVGLMNKFVEDTKKGVHQKEGWPSSAYGVTKIGVTVLSRIHARKLSEQRKGDKILLNACCPGWVRTDMAGPKATKSPEEGAETPVYLALLPPDAEGPHGQFVSEKRVEQW [CBR1]”, the “solubility in G1/S (log2)” value with HeLa Kyoto [1] turned out to be 0.626. Also, the values for the melting temperature in the data set with HeLa Kyoto [2] (cell cycle stage: G1/S) and in the data set on HeLa Kyoto [2] (cell cycle stage: mitosis) were 53.2 °C and 53 °C, respectively. In the data set on HeLa Kyoto [3], the “solubility change mitosis (log2)” value is -0.0843. Also, the thermal stability score with HeLa Kyoto [4] (setting [5]) was -1.36; with HeLa Kyoto [4] (cell cycle stage: mitosis), -0.874.

Turning to “MSSGKSARYNRFSGGPSNLPTPDVTTGTRMETTFGPAFSAVTTITKADGTSTYKQHCRTPSSSSTLAYSPRDEEDSMPPISTPRRSDSAISVRSLHSESSMSLRSTFSLPEEEEEPEPLVFAEQPSVKLCCQLCCSVFKDPVITTCGHTFCRRCALKSEKCPVDNVKLTVVVNNIAVAEQIGELFIHCRHGCRVAGSGKPPIFEVDPRGCPFTIKLSARKDHEGSCDYRPVRCPNNPSCPPLLRMNLEAHLKECEHIKCPHSKYGCTFIGNQDTYETHLETCRFEGLKEFLQQTDDRFHEMHVALAQKDQEIAFLRSMLGKLSEKIDQLEKSLELKFDVLDENQSKLSEDLMEFRRDASMLNDELSHINARLNMGILGSYDPQQIFKCKGTFVGHQGPVWCLCVYSMGDLLFSGSSDKTIKVWDTCTTYKCQKTLEGHDGIVLALCIQGCKLYSGSADCTIIVWDIQNLQKVNTIRAHDNPVCTLVSSHNVLFSGSLKAIKVWDIVGTELKLKKELTGLNHWVRALVAAQSYLYSGSYQTIKIWDIRTLDCIHVLQTSGGSVYSIAVTNHHIVCGTYENLIHVWDIESKEQVRTLTGHVGTVYALAVISTPDQTKVFSASYDRSLRVWSMDNMICTQTLLRHQGSVTALAVSRGRLFSGAVDSTVKVWTC [TRAF7]”, the “solubility in G1/S (log2)” value with HeLa Kyoto [1] is -0.171. For the same sequence, the melting temperature with HeLa Kyoto [2] (cell cycle stage: G1/S) was 50.5 °C. Also, the “solubility change mitosis (log2)” value in the data set on HeLa Kyoto [3] was -0.0251. In addition, the thermal stability score with HeLa Kyoto [4] (setting [5]) is -0.465; with HeLa Kyoto [4] (cell cycle stage: mitosis) it was 0.328.

Regarding “MSSKGSVVLAYSGGLDTSCILVWLKEQGYDVIAYLANIGQKEDFEEARKKALKLGAKKVFIEDVSREFVEEFIWPAIQSSALYEDRYLLGTSLARPCIARKQVEIAQREGAKYVSHGATGKGNDQVRFELSCYSLAPQIKVIAPWRMPEFYNRFKGRNDLMEYAKQHGIPIPVTPKNPWSMDENLMHISYEAGILENPKNQAPPGLYTKTQDPAKAPNTPDILEIEFKKGVPVKVTNVKDGTTHQTSLELFMYLNEVAGKHGVGRIDIVENRFIGMKSRGIYETPAGTILYHAHLDIEAFTMDREVRKIKQGLGLKFAELVYTGFWHSPECEFVRHCIAKSQERVEGKVQVSVLKGQVYILGRESPLSLYNEELVSMNVQGDYEPTDATGFININSLRLKEYHRLQSKVTAK [ASS1]”, the “solubility in G1/S (log2)” value with HeLa Kyoto [1] was determined as 0.145. The melting temperature worked out at 54.3 °C in the data set on HeLa Kyoto [2] (cell cycle stage: G1/S) and 54.1 °C in the data set on HeLa Kyoto [2] (cell cycle stage: mitosis). Further, in the data set on HeLa Kyoto [3], the “solubility change mitosis (log2)” value is -0.0958. The values for the thermal stability score with HeLa Kyoto [4] (setting [5]) and with HeLa Kyoto [4] (cell cycle stage: mitosis) were -0.511 and -0.833, respectively.

On to “MSSLIRRVISTAKAPGAIGPYSQAVLVDRTIYISGQIGMDPSSGQLVSGGVAEEAKQALKNMGEILKAAGCDFTNVVKTTVLLADINDFNTVNEIYKQYFKSNFPARAAYQVAALPKGSRIEIEAVAIQGPLTTASL [HRSP12]”, for which, in the data set with HeLa Kyoto [1], the “solubility in G1/S (log2)” value is 0.213. The melting temperature in the data set with HeLa Kyoto [2] (cell cycle stage: G1/S) is 55.4 °C; in the data set on HeLa Kyoto [2] (cell cycle stage: mitosis), 55 °C. For the same sequence, in the data set with HeLa Kyoto [3], the “solubility change mitosis (log2)” value amounted to 0.158. In addition, the thermal stability score in the data set on HeLa Kyoto [4] (setting [5]) is -1.03; with HeLa Kyoto [4] (cell cycle stage: mitosis), -1.85.

“MSSPASTPSRRGSRRGRATPAQTPRSEDARSSPSQRRRGEDSTSTGELQPMPTSPGVDLQSPAAQDVLFSSPPQMHSSAIPLDFDVSSPLTYGTPSSRVEGTPRSGVRGTPVRQRPDLGSAQKGLQVDLQSDGAAAEDIVASEQSLGQKLVIWGTDVNVAACKENFQRFLQRFIDPLAKEEENVGIDITEPLYMQRLGEINVIGEPFLNVNCEHIKSFDKNLYRQLISYPQEVIPTFDMAVNEIFFDRYPDSILEHQIQVRPFNALKTKNMRNLNPEDIDQLITISGMVIRTSQLIPEMQEAFFQCQVCAHTTRVEMDRGRIAEPSVCGRCHTTHSMALIHNRSLFSDKQMIKLQESPEDMPAGQTPHTVILFAHNDLVDKVQPGDRVNVTGIYRAVPIRVNPRVSNVKSVYKTHIDVIHYRKTDAKRLHGLDEEAEQKLFSEKRVELLKELSRKPDIYERLASALAPSIYEHEDIKKGILLQLFGGTRKDFSHTGRGKFRAEINILLCGDPGTSKSQLLQYVYNLVPRGQYTSGKGSSAVGLTAYVMKDPETRQLVLQTGALVLSDNGICCIDEFDKMNESTRSVLHEVMEQQTLSIAKAGIICQLNARTSVLAAANPIESQWNPKKTTIENIQLPHTLLSRFDLIFLLLDPQDEAYDRRLAHHLVALYYQSEEQAEEELLDMAVLKDYIAYAHSTIMPRLSEEASQALIEAYVDMRKIGSSRGMVSAYPRQLESLIRLAEAHAKVRLSNKVEAIDVEEAKRLHREALKQSATDPRTGIVDISILTTGMSATSRKRKEELAEALKKLILSKGKTPALKYQQLFEDIRGQSDIAITKDMFEEALRALADDDFLTVTGKTVRLL [MCM4]”: in the data set on HeLa Kyoto [1], the “solubility in G1/S (log2)” value was found to be 0.157. Also, the melting temperature was 50.6 °C in the data set with HeLa Kyoto [2] (cell cycle stage: G1/S) and 50.4 °C in the data set on HeLa Kyoto [2] (cell cycle stage: mitosis). In addition, the “solubility change mitosis (log2)” value with HeLa Kyoto [3] was -0.0425. Besides, the thermal stability score with HeLa Kyoto [4] (setting [5]) worked out at 0.944; with HeLa Kyoto [4] (cell cycle stage: mitosis), 0.88.

Consider “MSSRKQGSQPRGQQSAEEENFKKPTRSNMQRSKMRGASSGKKTAGPQQKNLEPALPGRWGGRSAENPPSGSVRKTRKNKQKTPGNGDGGSTSEAPQPPRKKRARADPTVESEEAFKNRMEVKVKIPEELKPWLVEDWDLVTRQKQLFQLPAKKNVDAILEEYANCKKSQGNVDNKEYAVNEVVAGIKEYFNVMLGTQLLYKFERPQYAEILLAHPDAPMSQVYGAPHLLRLFVRIGAMLAYTPLDEKSLALLLGYLHDFLKYLAKNSASLFTASDYKVASAEYHRKAL [MORF4L2]”, for which the “solubility in G1/S (log2)” value in the data set with HeLa Kyoto [1] turned out to be 0.0399. In addition, the figures for the melting temperature in the data set on HeLa Kyoto [2] (cell cycle stage: G1/S) and in the data set with HeLa Kyoto [2] (cell cycle stage: mitosis) were 52.9 °C and 52.1 °C, respectively. Also, the “solubility change mitosis (log2)” value in the data set with HeLa Kyoto [3] is 0.484. Besides, the thermal stability score is 0.948 in the data set with HeLa Kyoto [4] (setting [5]) and 0.257 with HeLa Kyoto [4] (cell cycle stage: mitosis).
